Reference: paper PMC10716376, “The assembly of the Mitochondrial Complex I Assembly complex uncovers a redox pathway coordination” (Nature Communications, 2023)

Columns and labels:
Conditions in all cases: both partners purified
ACAD9_(S191A) = biological target: T1, ACAD9_(S191A) (human, UniProt Q9H845 38-621, S191A); test: ITC; 25 °C; ACAD9 at 49 uM in the cell, titrated with ECSIT at 300 uM; 50 mM Tris-HCl pH 7.5, 250 mM NaCl
T1 construct: human ACAD9, residues 38-621, S191A; One FAD per protomer in the cryo-EM structure; source: E. coli C43 (DE3), purified (HisTrap, dialysed in SEC buffer)
T1 sequence (looked up): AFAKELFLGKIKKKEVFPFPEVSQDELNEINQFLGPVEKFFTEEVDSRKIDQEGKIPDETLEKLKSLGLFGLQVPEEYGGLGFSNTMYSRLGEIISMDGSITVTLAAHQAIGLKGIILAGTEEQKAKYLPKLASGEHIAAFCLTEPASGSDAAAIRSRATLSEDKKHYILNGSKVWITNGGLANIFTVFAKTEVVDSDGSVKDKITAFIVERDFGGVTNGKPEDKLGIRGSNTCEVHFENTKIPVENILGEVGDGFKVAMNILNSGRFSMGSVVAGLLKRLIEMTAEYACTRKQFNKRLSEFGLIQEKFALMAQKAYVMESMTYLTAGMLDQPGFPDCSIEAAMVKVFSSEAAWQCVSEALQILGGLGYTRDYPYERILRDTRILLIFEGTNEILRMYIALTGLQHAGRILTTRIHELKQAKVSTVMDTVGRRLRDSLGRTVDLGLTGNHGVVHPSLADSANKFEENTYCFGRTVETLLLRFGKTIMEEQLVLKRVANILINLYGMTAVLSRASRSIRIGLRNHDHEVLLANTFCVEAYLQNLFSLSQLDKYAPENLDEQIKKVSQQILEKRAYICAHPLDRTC

ACAD9_(A184S) = biological target: T2, ACAD9_(A184S) (human, UniProt Q9H845 38-621, A184S); test: dynamic light scattering; 278 K, protein at 1-2 mg/ml; complexes reconstituted at molar ratio 1:1.25
T2 construct: human ACAD9, residues 38-621, A184S (mimics the VLCAD gatekeeper loop); source: E. coli C43 (DE3), purified (HisTrap, dialysed in SEC buffer)
T2 sequence (looked up): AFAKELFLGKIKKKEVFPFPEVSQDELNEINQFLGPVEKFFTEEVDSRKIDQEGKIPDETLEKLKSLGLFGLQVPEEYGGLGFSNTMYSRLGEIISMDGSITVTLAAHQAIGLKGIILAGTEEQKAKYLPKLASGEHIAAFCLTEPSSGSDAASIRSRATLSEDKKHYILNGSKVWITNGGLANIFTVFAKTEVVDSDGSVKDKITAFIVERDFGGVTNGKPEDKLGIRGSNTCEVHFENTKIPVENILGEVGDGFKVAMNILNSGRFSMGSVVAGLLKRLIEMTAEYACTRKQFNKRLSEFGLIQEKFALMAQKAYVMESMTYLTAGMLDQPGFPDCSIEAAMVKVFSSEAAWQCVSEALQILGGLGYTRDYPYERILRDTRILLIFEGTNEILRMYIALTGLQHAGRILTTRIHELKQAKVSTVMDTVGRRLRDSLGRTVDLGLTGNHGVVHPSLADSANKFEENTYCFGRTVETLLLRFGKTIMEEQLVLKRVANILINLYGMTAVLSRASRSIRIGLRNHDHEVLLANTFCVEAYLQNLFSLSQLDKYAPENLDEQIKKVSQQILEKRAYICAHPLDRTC

ACAD9_(SR194TS) = biological target: T3, ACAD9_(SR194TS) (human, UniProt Q9H845 38-621, SR194TS); test: as above
T3 construct: human ACAD9, residues 38-621, double mutant SR194TS (mimics the VLCAD gatekeeper loop); source: E. coli C43 (DE3), purified (HisTrap, dialysed in SEC buffer)
T3 sequence (looked up): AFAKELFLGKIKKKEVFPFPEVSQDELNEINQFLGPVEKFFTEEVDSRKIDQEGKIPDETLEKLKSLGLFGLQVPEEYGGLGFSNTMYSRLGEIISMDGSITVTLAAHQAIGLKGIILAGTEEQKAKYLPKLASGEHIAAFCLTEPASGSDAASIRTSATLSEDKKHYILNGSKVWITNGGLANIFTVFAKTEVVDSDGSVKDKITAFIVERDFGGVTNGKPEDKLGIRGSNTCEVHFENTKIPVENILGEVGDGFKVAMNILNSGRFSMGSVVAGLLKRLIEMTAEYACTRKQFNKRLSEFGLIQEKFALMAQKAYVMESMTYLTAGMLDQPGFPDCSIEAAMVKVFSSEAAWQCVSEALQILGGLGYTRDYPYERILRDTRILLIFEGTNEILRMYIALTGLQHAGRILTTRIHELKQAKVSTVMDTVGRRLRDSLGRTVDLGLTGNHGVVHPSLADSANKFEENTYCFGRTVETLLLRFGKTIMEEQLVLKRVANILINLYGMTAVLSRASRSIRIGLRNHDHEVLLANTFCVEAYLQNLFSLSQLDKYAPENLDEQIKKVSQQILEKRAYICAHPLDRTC

ACAD9_(A184S/SR194TS) = biological target: T4, ACAD9_(A184S/SR194TS) (human, UniProt Q9H845 38-621, A184S | SR194TS); test: mass photometry; ACAD9 (or VLCAD) at 20-50 nM in 25 mM HEPES pH 7.5, 250 mM NaCl, or diluted in 4.8 uM ECSIT solution for complex formation
T4 construct: human ACAD9, residues 38-621, A184S and SR194TS combined (mimics the VLCAD gatekeeper loop); source: E. coli C43 (DE3), purified (HisTrap, dialysed in SEC buffer)
T4 sequence (looked up): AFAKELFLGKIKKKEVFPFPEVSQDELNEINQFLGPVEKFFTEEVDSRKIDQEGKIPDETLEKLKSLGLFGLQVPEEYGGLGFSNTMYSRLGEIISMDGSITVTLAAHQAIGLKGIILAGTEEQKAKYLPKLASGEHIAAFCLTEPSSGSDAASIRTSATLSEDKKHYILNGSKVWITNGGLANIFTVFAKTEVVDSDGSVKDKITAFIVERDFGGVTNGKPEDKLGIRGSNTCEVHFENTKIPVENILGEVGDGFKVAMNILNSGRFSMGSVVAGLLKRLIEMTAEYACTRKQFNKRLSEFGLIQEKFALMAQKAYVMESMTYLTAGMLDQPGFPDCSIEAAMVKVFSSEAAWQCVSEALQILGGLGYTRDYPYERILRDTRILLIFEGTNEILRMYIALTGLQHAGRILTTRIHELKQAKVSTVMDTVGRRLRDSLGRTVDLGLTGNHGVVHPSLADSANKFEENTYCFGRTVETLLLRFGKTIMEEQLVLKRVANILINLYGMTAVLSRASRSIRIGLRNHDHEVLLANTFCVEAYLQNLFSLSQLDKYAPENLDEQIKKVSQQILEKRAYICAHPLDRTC

[1] = biological target: T5, ACAD9WT (mature ACAD9, residues 38-621) (human, UniProt Q9H845 38-621); test: cryo-EM structure; ACAD9WT-ECSIT_(CTER) reconstituted (molar ratio 1:1.25) and purified by gel filtration; 25 mM HEPES, 300 mM NaCl, 1 mM TCEP, pH 7.5; C2 symmetry imposed
T5 construct: human ACAD9, mature form, residues 38-621; E. coli codon-optimised synthetic gene; Cloned into pET-21d(+); Plasmid details are in Supplementary Data 1; source: E. coli C43 (DE3), purified (HisTrap, dialysed in SEC buffer)
T5 sequence (looked up): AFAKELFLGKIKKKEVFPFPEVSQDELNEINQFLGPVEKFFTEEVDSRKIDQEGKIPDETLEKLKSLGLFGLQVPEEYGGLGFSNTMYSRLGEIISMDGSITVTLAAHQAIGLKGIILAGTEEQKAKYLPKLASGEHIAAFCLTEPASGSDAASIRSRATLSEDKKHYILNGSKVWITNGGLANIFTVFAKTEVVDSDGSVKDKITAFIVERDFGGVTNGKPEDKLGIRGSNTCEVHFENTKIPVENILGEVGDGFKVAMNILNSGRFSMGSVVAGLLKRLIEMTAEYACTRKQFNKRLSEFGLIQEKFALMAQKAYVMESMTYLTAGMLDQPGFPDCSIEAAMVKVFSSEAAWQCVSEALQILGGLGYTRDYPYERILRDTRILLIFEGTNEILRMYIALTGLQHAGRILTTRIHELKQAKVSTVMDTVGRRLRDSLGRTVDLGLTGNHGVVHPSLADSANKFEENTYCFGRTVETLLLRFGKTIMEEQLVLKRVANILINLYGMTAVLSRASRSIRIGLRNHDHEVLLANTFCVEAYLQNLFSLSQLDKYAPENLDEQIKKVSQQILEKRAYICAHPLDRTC

Kd (ACAD9_(S191A)): 3.93 µM
fold decrease in fold change against ACAD9WT-ECSIT_(CTER) (ACAD9_(S191A)): ~3 fold
binding result (ACAD9_(A184S)): binds
binding result (ACAD9_(SR194TS)): binds
binding result (ACAD9_(A184S/SR194TS)): binds
stoichiometry N [1]: 1 ECSIT_(CTER) per ACAD9 protomer
B1: ECSIT_(CTER) (residues 221-431) (domain or fragment, human, UniProt Q9BQ95 221-431, looked up)
chain: QDPVELAMFGLRHMEPDLSARVTIYQVPLPKDSTGAADPPQPHIVGIQSPDQQAALARHNPARPVFVEGPFSLWLRNKCVYYHILRADLLPPEEREVEETPEEWNLYYPMQLDLEYVRSGWDNYEFDINEVEEGPVFAMCMAGAHDQATMAKWIQGLQETNPTLAQIPVVFRLAGSTRELQTSSAGLEEPPLPEDHQEEDDNLQRQQQGQS
notes: human ECSIT, residues 221-431; E. coli codon-optimised synthetic gene; Only residues 320-334 are modelled in the cryo-EM map; Plasmid details are in Supplementary Data 1; also called C-terminal ECSIT; source: E. coli BL21 Star (DE3), purified (HisTrap, SEC)
